Reference: patent US20180327495A1

Target: Trop-2 (EGP-1) (human) (UniProt P09758)
Experiment: cell-based or functional assay

Sequence of Trop-2 (EGP-1) (human) (P09758 27-323): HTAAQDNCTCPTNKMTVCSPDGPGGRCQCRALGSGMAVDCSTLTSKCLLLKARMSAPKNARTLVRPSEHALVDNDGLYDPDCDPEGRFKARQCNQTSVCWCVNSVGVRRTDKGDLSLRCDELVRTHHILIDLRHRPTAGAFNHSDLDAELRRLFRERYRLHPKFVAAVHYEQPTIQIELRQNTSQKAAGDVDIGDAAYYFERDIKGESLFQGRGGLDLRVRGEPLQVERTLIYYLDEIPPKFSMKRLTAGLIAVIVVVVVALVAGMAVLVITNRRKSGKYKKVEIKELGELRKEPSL

## hRS7 (anti-EGP-1 / anti-Trop-2 humanized MAb), unconjugated IgG (antibody)
  ADCC, specific lysis (PBMC effectors, effector to target ratio 100:1, antibody at 33.3 nM): 8.5%
